Assays:
HCC827 tumor cells = assay: HCC827 xenograft in NSG-hHGFki mice; assay type: in vivo, mouse
Source text: The VH of the cMET variable domain of PB19748 comprises the amino acid sequence of MF8230 (see FIG. 8). […] The VH of the EGFR variable domain of PB19748 comprises the amino acid sequence of MF8233 of FIG. 7. […] In the chosen model, HCC827 tumor cells are engrafted into immunodeficient NOD SCID gamma (NSG) human hepatocyte growth factor knock-in (hHGFki) mice, that express human HGF (ligand for cMET) in place of endogenous mouse HGF. […] They have no T or B cells, lack functional NK cells, and are deficient in cytokine signaling, which allows for better tumor engraftment.
Prior to tumor cell engraftment, the cell cycle of HCC827 cells was boosted by culturing the cells overnight in medium supplemented with 20% fetal bovine serum (FBS) at confluency not exceeding 80%. […] The resulting tumors were measured twice each week using calipers. When the mean tumor volume reached approximately 200 mm^3, the mice were randomized into two groups (4-7 mice per group depending on tumor growth and volume) and drug treatment was started.
Tumor volume was measured twice each week using calipers, and mean tumor volume (and SEM) calculated for each group. When tumor sizes reached 1500 mm^3 mice were euthanized. Treatment was stopped after day 48, and tumor volume in surviving mice was measured up to day 62. […]
As before, tumor volume was monitored and mean tumor volume (and SEM) calculated in each group. All treatments were stopped after day 60, and tumor volume in surviving mice was measured up to day 82.
As before, tumor volume was monitored and mean tumor volume (and SEM) calculated in each group. All treatments were stopped after day 93, and tumor volume in surviving mice was measured up to day […].
In a fourth experiment the effect of a later administration of PB19478 was tested.
On day 51 when the mean tumor volume had clearly passed the 500 mm 3 mark the mice were randomized into two groups. […] As before, tumor volume was monitored and mean tumor volume (and SEM) calculated in each group. All treatments were stopped after day 72.

tumor cell line H1975 = conditions: H1975 expresses the cMET ligand HGF; cited from earlier work
cMET and EGFR = conditions: cited from earlier work

C#Cc1cccc(Nc2ncnc3cc(OCCOC)c(OCCOC)cc23)c1 [erlotinib, reference compound]
anti-tumor response (HCC827 tumor cells; mouse, in vivo): able to induce an anti-tumor response

JNJ-61186372: bispecific cMETxEGFR antibody produced by controlled Fab-arm exchange (Moores et al 2016)
activity in vivo (tumor cell line H1975): active in vivo | affinity imbalance, greater affinity for cMET than EGFR (cMET and EGFR): approximately 40 ×

B1: LY2875358: humanized monoclonal cMET antibody emibetuzumab (antibody, chains of the INN, looked up, V domains shown)
VH: QVQLVQSGAEVKKPGASVKVSCKASGYTFTDYYMHWVRQAPGQGLEWMGRVNPNRRGTTYNQKFEGRVTMTTDTSTSTAYMELRSLRSDDTAVYYCARANWLDYWGQGTTVTVSS
VL: DIQMTQSPSSLSASVGDRVTITCSVSSSVSSIYLHWYQQKPGKAPKLLIYSTSNLASGVPSRFSGSGSGTDFTLTISSLQPEDFATYYCQVYSGYPLTFGGGTKVEIK
anti-tumor response (HCC827 tumor cells; antibody 25 mg/kg weekly i.p. plus erlotinib 6 mg/kg daily gavage): less effective than PB8532 | anti-tumor response (HCC827 tumor cells; antibody 25 mg/kg weekly i.p. plus erlotinib 6 mg/kg daily gavage, listed as LY3875358): less effective | anti-tumor response (HCC827 tumor cells; antibody 25 mg/kg weekly i.p. plus vehicle (without erlotinib)): less effective than PB8532 | anti-tumor response (HCC827 tumor cells; antibody 25 mg/kg weekly i.p. plus vehicle (without erlotinib), listed as LY3875358): less effective
